B1: brain derived neurotrophic factor (protein, UniProt P23560 19-247, looked up)
Neurotrophic factor BDNF …: APMKEANIRGQGGLAYPGVRTHGTLESVNGPKAGSRGLTSLADTFEHVIEELLDEDQKVRPNEENNKDADLYTSRVMLSSQVPLEPPLLFLLEEYKNYLDAANMSMRVRRHSDPARRGELSVCDSISEWVTAADKKTAVDMSGGTVTVLEKVPVSKGQLKQYFYETKCNPMGYTKEGCRGIDKRHWNSQCRTTQSYVRALTMDSKKRIGWRFIRIDTSCVCTLTIKRGR
notes: neurotrophin; BDNF Human Protein (Geneway)

Columns and labels:
[1] = Clearance of radiolabelled neurotrophin-3 by whole cochlear gamma counts; format: in vivo
Description: In vivo studies were carried out to determine the drug payload and clearance of neurotrophin delivered in a supraparticle implanted into the ear after 4 hr, 3 day and 7 days of implantation. The objective was to determine the amount of neurotrophin remaining in the cochlea over time.
1 SP containing radiolabelled neurotrophin-3 was implanted into each cochlea. Cochleae were harvested following 4 hrs (n=5), 3 d (n=7) or 7 d (n=4). Whole cochlear gamma counts were measured to determine the clearance of neurotrophin-3 over time. After 1 week of implantation each SP contained ˜2 ug of neurotrophin-3 (˜40%) of initial loaded amount.
Further experiments (n=2) were carried out to examine clearance of neurotrophin-3 following round window delivery. 3 days after implantation—whole cochlear measurements were again used to determine the clearance of neurotrophin-3 from the round window membrane.

[2] = BDNF perilymph concentration by ELISA after SP implantation; format: in vivo; settings: 2 electrosprayed SPs loaded with BDNF, n=2
Description: Next, 2 SPs produced by electrospraying were loaded with BDNF and placed inside the cochlea. Serial perilymph samples (1 ul samples) were obtained from the apex of the cochlea at three days and one week post implantation (sampling techniques described in Plontke et al. (2007) Laryngoscope. 117:1191-1198) and samples were analysed using an ELISA.

[3] = after 1 week of implantation, 1 SP intracochlear

| Molecule | neurotrophin-3 remaining ([1]; 3 days after implantation, round window delivery) [%] | neurotrophin-3 remaining ([1]; 3 days, intracochlear delivery) [%] | amount of neurotrophin-3 remaining per SP [1, 3] [µg] | neurotrophin-3 remaining (% of initial loaded amount) [1, 3] [%] | peak BDNF perilymph concentration inside the cochlea ([2]; after 3 days) [ng/mL] | peak BDNF perilymph concentration inside the cochlea ([2]; after 7 days) [ng/mL] |
| --- | --- | --- | --- | --- | --- | --- |
| neurotrophin-3 | 47.4 | 56 | ~2 | ~40 |  |  |
| B1 |  |  |  |  | 1707 | 775 |

Source: patent US12048733B2, “Method of treatment” (THE BIONICS INSTITUTE OF AUSTRALIA, priority 2017, dated 2024)
